According to patent US20220056087A1 (GLIKNIK, published 2022):

B1: mouse FcγRIIB (immobilized on CM4 chip) (receptor, UniProt P08101 30-207, looked up)
chain: THDLPKAVVKLEPPWIQVLKEDTVTLTCEGTHNPGNSSTQWFHNGRSIRSQVQASYTFKATVNDSGEYRCQMEQTRLSDPVDLGVISDWLLLQTPQLVFLEGETITLRCHSWRNKLLNRISFFHNEKSVRYHHYSSNFSIPKANHSHSGDYYCKGSLGRTLHQSKPVTITVQGPKSSR
notes: also called mouse FcγR2b
B9: mouse IgG2a Fc homodimers (other, UniProt P01863 98-330, looked up)
chain: EPRGPTIKPCPPCKCPAPNLLGGPSVFIFPPKIKDVLMISLSPIVTCVVVDVSEDDPDVQISWFVNNVEVHTAQTQTHREDYNSTLRVVSALPIQHQDWMSGKEFKCKVNNKDLPAPIERTISKPKGSVRAPQVYVLPPPEEEMTKKQVTLTCMVTDFMPEDIYVEWTNNGKTELNYKNTEPVLDSDGSYFMYSKLRVEKKNWVERNSYSCSVVHEGLHNHHTTKSFSRTPGK
notes: domain: Fc; also called IgG2a controls; IgG2a Fc control
B11: mouse FcγRIIIA (immobilized on CM4 chip) (receptor, UniProt P08508 31-215, looked up)
chain: ALPKAVVKLDPPWIQVLKEDMVTLMCEGTHNPGNSSTQWFHNGRSIRSQVQASYTFKATVNDSGEYRCQMEQTRLSDPVDLGVISDWLLLQTPQRVFLEGETITLRCHSWRNKLLNRISFFHNEKSVRYHHYKSNFSIPKANHSHSGDYYCKGSLGSTQHQSKPVTITVQDPATTSSISLVWYHT
notes: also called mouse FcγR3A

Key:
[1] = biological target: B9; assay: SPR (Biacore), receptor amine-coupled to a CM4 chip; panel 'Mse FcR2B'
Description: (§1) FcγRIIIA, FcγRIIB and SIGN-R1 receptors were immobilized to a CM4 chip using amine immobilization to 560, 500, and 1000RU, respectively to compensate for protein size.
(§2) Regeneration was achieved by a 10 sec injection of 1M MgCl at 100 ul/min, followed by a brief wash with running buffer. KDs were calculated using T100 evaluation software.

[2] = biological target: T1, G001 (native IgG1 Fc) (human, UniProt P01857-1 99-330 = IgG part); assay: BLI (Octet 96 Red), receptor on sensor, G001 in solution
T1 construct: domain: Fc; also called IgG1 Fc control; homodimeric monomer of IgG1 Fc
Description: For binding analysis of mouse protein, His-tagged mouse FcγRII (R&D system cat #1460-CD) and FcγRIII R&D system cat #1960) were separately loaded on anti-penta-His Biosensors (ForteBio cat #18-5077) at 10 ug/ml in 1× kinetic analysis buffer (ForteBio cat #18-5032). For binding analysis of human protein, His-tagged human FcγRIIb (R&D system cat #1875-CD) and FcγRIIIa R&D system cat #4325-Fc) were separately loaded on anti-penta-His Biosensors (ForteBio cat #18-5077) at 10 ug/ml in 1× kinetic analysis buffer (ForteBio cat #18-5032). Following sensor tip loading protein association was measured by transfer of tips to preparations of either monomeric fraction (over a range of concentrations) or the multimeric fractions (over a range of concentrations) in 1× kinetics analysis buffer and dissociation was measured by transfer of sensor tips to 1× kinetics buffer. Analysis was as described (Data Analysis User Guide 6.4ForteBio). Analysis was standardized as described above assigning a MW of 50 kD to homodimers and 150 kD to all other protein preparations.

[3] = biological target: B1; assay: SPR (Biacore), receptor amine-coupled to a CM4 chip, analyte 500 nM to 1.9 nM; panel 'Mse FcR2B'
Description: as §1, §2

[4] = biological target: T2, mouse SIGN-R1 (immobilized on CM4 chip) (mouse, UniProt Q8CJ91 74-325, limits assumed); assay: SPR (Biacore), receptor amine-coupled to a CM4 chip, analyte 500 nM to 1.9 nM; panel 'Mse SIGN-R1'
T2 sequence (looked up): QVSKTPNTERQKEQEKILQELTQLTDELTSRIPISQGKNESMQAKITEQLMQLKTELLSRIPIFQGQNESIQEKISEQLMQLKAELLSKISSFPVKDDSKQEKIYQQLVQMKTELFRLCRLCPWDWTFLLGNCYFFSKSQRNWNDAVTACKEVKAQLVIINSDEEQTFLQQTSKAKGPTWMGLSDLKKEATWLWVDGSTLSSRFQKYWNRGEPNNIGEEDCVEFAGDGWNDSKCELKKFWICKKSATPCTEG
Description: as §1, §2

[5] = biological target: T2, mouse SIGN-R1 (immobilized on CM4 chip); assay: SPR (Biacore) as in Example 4, SIGN-R1 on the chip
Description: as §1, §2
(§3) M045F was first gel fractionated using an AktaXpress protein purification system and a GE HiLoad 16/60 Superdex 200 prep grade column.

[6] = biological target: T2, mouse SIGN-R1 (immobilized on CM4 chip); assay: SPR (Biacore) as in Example 4, SIGN-R1 on the chip; the sheet itself says the value cannot be accurately calculated; traces nearly flat
Description: as §1, §2, §3

[7] = biological target: T2, mouse SIGN-R1 (immobilized on CM4 chip); assay: SPR (Biacore) as in Example 4, SIGN-R1 on the chip; the sheet itself says the value cannot be accurately calculated; traces flat
Description: as §1, §2, §3

[8] = biological target: B11; assay: SPR (Biacore), receptor amine-coupled to a CM4 chip, analyte 500 nM to 1.9 nM; panel 'Mse FcR3A'
Description: as §1, §2

[9] = biological target: B9; assay: SPR (Biacore), receptor amine-coupled to a CM4 chip; panel 'Mse FcR3A'
Description: as §1, §2

With B1 the Kd [1] was 642 nM.

B2: His-tagged mouse FcγRII (R&D system cat #1460-CD) (receptor, UniProt P08101 30-207, looked up)
chain: THDLPKAVVKLEPPWIQVLKEDTVTLTCEGTHNPGNSSTQWFHNGRSIRSQVQASYTFKATVNDSGEYRCQMEQTRLSDPVDLGVISDWLLLQTPQLVFLEGETITLRCHSWRNKLLNRISFFHNEKSVRYHHYSSNFSIPKANHSHSGDYYCKGSLGRTLHQSKPVTITVQGPKSSR
notes: Bought protein; also called Mouse FcγRIIb; Mouse FcyRII
For B2, the Kd [2] was 1510 nM.

B3: M019 stradomer (Fc fusion)
chain: ERKCCVECPPCPEPRGPTIKPCPPCKCPAPNLLGGPSVFIFPPKIKDVLMISLSPIVTCVVVDVSEDDPDVQISWFVNNVEVHTAQTQTHREDYNSTLRVVSALPIQHQDWMSGKEFKCKVNNKDLPAPIERTISKPKGSVRAPQVYVLPPPEEEMTKKQVTLTCMVTDFMPEDIYVEWTNNGKTELNYKNTEPVLDSDGSYFMYSKLRVEKKNWVERNSYSCSVVHEGLHNHHTTKSFSRTPGK
notes: Murine counterpart of G019 (N-terminal IgG2 hinge multimerization domain); The entry may include a leader
With B3 the Kd [3] was 45.3 nM and the binding result [4] was “binds”.

B4: M045c stradomer (Fc fusion)
chain: DEPRGPTIKPCPPCKCPAPNLLGGPSVFIFPPKIKDVLMISLSPIVTCVVVDVSEDDPDVQISWFVNNVEVHTAQTQTHREDYNSTLRVVSALPIQHQDWMSGKEFKCKVNNKDLPAPIERTISKPKGSVRAPQVYVLPPPEEEMTKKQVTLTCMVTDFMPEDIYVEWTNNGKTELNYKNTEPVLDSDGSYFMYSKLRVEKKNWVERNSYSCSVVHEGLHNHHTTKSFSRTPGKERKCCVECPPCP
notes: Murine counterpart of G045c; The entry may include a leader that is cleaved from the secreted protein; Mix of homodimers and multimers
B4 was tested, and the Kd [5] was 334 nM.

B5: M045 F2 (Fc fusion)
stradomer monomer: DEPRGPTIKPCPPCKCPAPNLLGGPSVFIFPPKIKDVLMISLSPIVTCVVVDVSEDDPDVQISWFVNNVEVHTAQTQTHREDYNSTLRVVSALPIQHQDWMSGKEFKCKVNNKDLPAPIERTISKPKGSVRAPQVYVLPPPEEEMTKKQVTLTCMVTDFMPEDIYVEWTNNGKTELNYKNTEPVLDSDGSYFMYSKLRVEKKNWVERNSYSCSVVHEGLHNHHTTKSFSRTPGKERKCCVECPPCP
notes: also called lower molecular weight multimer fraction of M045
For B5, the Kd [5] was 91.2 nM.

B6: M045 F1 (highest molecular weight multimer fraction of M045c) (Fc fusion)
chain: DEPRGPTIKPCPPCKCPAPNLLGGPSVFIFPPKIKDVLMISLSPIVTCVVVDVSEDDPDVQISWFVNNVEVHTAQTQTHREDYNSTLRVVSALPIQHQDWMSGKEFKCKVNNKDLPAPIERTISKPKGSVRAPQVYVLPPPEEEMTKKQVTLTCMVTDFMPEDIYVEWTNNGKTELNYKNTEPVLDSDGSYFMYSKLRVEKKNWVERNSYSCSVVHEGLHNHHTTKSFSRTPGKERKCCVECPPCP
notes: The entry may include a leader; also called Fraction 1; M045 Fraction 1
B6 was tested, and the Kd [5] was 90.9 nM.

B7: M045 F3 (Fc fusion)
stradomer monomer: DEPRGPTIKPCPPCKCPAPNLLGGPSVFIFPPKIKDVLMISLSPIVTCVVVDVSEDDPDVQISWFVNNVEVHTAQTQTHREDYNSTLRVVSALPIQHQDWMSGKEFKCKVNNKDLPAPIERTISKPKGSVRAPQVYVLPPPEEEMTKKQVTLTCMVTDFMPEDIYVEWTNNGKTELNYKNTEPVLDSDGSYFMYSKLRVEKKNWVERNSYSCSVVHEGLHNHHTTKSFSRTPGKERKCCVECPPCP
notes: also called homodimer fraction of M045
Binder B7 has a Kd [6] of 11000 nM.

B8: Cynomolgus FcγRIIIa (receptor, UniProt Q8SPW2 17-208, looked up)
chain: GMRAEDLPKAVVFLEPQWYRVLEKDRVTLKCQGAYSPEDNSTRWFHNESLISSQTSSYFIAAARVNNSGEYRCQTSLSTLSDPVQLEVHIGWLLLQAPRWVFKEEESIHLRCHSWKNTLLHKVTYLQNGKGRKYFHQNSDFYIPKATLKDSGSYFCRGLIGSKNVSSETVNITITQDLAVSSISSFFPPGYQ
Work on B8 yielded a kon [2] of 124000 M⁻¹ s⁻¹.

In the case of B9, the Kd [7] is reported as 132 nM.

B10: M028 stradomer (Fc fusion)
chain: SIKQIEDKIEEILSKIYHIENEIARIKKLIGERGEPRGPTIKPCPPCKCPAPNLLGGPSVFIFPPKIKDVLMISLSPIVTCVVVDVSEDDPDVQISWFVNNVEVHTAQTQTHREDYNSTLRVVSALPIQHQDWMSGKEFKCKVNNKDLPAPIERTISKPKGSVRAPQVYVLPPPEEEMTKKQVTLTCMVTDFMPEDIYVEWTNNGKTELNYKNTEPVLDSDGSYFMYSKLRVEKKNWVERNSYSCSVVHEGLHNHHTTKSFSRTPGK
notes: Murine counterpart of G028 (N-terminal isoleucine zipper); The entry may include a leader
For B10, the Kd [5] was 638 nM and the Kd [8] was 18.7 nM.

B11 gave a Kd [9] of 80.1 nM.

B12: His-tagged mouse FcγRIII (R&D system cat #1960) (receptor, UniProt P08508 31-215, looked up)
chain: ALPKAVVKLDPPWIQVLKEDMVTLMCEGTHNPGNSSTQWFHNGRSIRSQVQASYTFKATVNDSGEYRCQMEQTRLSDPVDLGVISDWLLLQTPQRVFLEGETITLRCHSWRNKLLNRISFFHNEKSVRYHHYKSNFSIPKANHSHSGDYYCKGSLGSTQHQSKPVTITVQDPATTSSISLVWYHT
notes: Bought protein; also called Mouse FcyRIII
B12 gave a Kd [2] of 4180 nM.

B13: His-tagged human FcγRIIb (R&D system cat #1875-CD) (receptor, UniProt P31994 46-217, looked up)
chain: APPKAVLKLEPQWINVLQEDSVTLTCRGTHSPESDSIQWFHNGNLIPTHTQPSYRFKANNNDSGEYTCQTGQTSLSDPVHLTVLSEWLVLQTPHLEFQEGETIVLRCHSWKDKPLVKVTFFQNGKSKKFSRSDPNFSIPQANHSHSGDYHCTGNIGYTLYSSKPVTITVQAP
notes: Bought protein
Binder B13 has a Kd [2] of 1310 nM.

B14: Cynomolgus FcγRIIb (receptor)
chain: TPAAPPKAVLKLEPPWINVLREDSVTLTCGGAHSPDSDSTQWFHNGNLIPTHTQPSYRFKANNNDSGEYRCQTGRTSLSDPVHLTVLSEWLALQTPHLEFREGETIMLRCHSWKDKPLIKVTFFQNGKSKKFSHMDPNFSIPQANHSHSGDYHCTGNIGYTPYSSKPVTITVQVP
B14 showed a Kd [2] of 2040 nM.
